Patent US20240317858A1 (Adimab, published 2024)

How the values were obtained:
[1] = molecular target: T1, Cynomolgus CD3εδ Fc heterodimer (Cy CD3ε Fc + CD3δ Fc-HIS) (cynomolgus, UniProt Q95LI5 22-117; Q95LI8 22-100); test: BLI (Octet), Fab monovalent, pH 6.0
T1 construct: range 22-117;range 22-100; Made in HEK 293 cells with a heterologous signal peptide; also called Cy CD3εδ-Fc; cyno CD3εδ Fc; not shown: Fc; Fc followed by HIS tag
Description: (§1) ForteBio KD measurements (Biolayer interferometry; BLI). ForteBio affinity measurements were performed generally as previously described (Estep, P., et al., High throughput solution-based measurement of antibody-antigen affinity and epitope binning. MAbs, 2013. 5(2): p. 270-8.). Briefly, ForteBio affinity measurements were performed by loading IgGs or CD3εδ Fe-HIS heterodimer onto AHC sensors. Sensors were equilibrated off-line in assay buffer for 30 min and then monitored on-line for 60 seconds for baseline establishment. Sensors with loaded IgGs were exposed to 100 nM antigen (e.g., CD3) for 3 min, afterwards they were transferred to assay buffer for 10 min for off-rate measurement. Sensors loaded with CD3εδ Fe-HIS heterodimer were exposed to 100 nM anti-CD3 Fab for 3 min, afterwards they were transferred to assay buffer for 3 min or 10 min for off-rate measurement. Kinetics were analyzed using the 1:1 binding model. For measuring binding at different pHs, measurements were performed at pre-determined pHs (e.g., pH 7.4 and pH 6.0).
(§2) Anti-CD3 antibodies A001-A005, V002, V004, V007, V009, V010, V013, and V014-V019 were produced as IgG1s in CHO cells, and Fab fragments were generated from IgG1 antibodies by papain digestion and purification as described in Example 2. Human, cynomolgus, rhesus, and mouse CD3εδ Fc heterodimers were produced, and monovalent binding affinity and avidity at pH 7.4 and pH 6.0 were measured using the Octet® HTX instrument (ForteBio) as described in Example 2.

[2] = molecular target: T2, Human CD3εδ Fc heterodimer (Hu CD3ε Fc + CD3δ Fc-HIS) (human, UniProt P07766 22-126; P04234 22-100); test: BLI (Octet), Fab monovalent, pH 6.0
T2 construct: range 22-126;range 22-100; Made in HEK 293 cells with a heterologous signal peptide; also called Hu CD3εδ-Fc; CD3εδ Fc-HIS heterodimer; not shown: Fc; Fc followed by HIS tag
Description: as §1, §2

[3] = molecular target: T1, Cynomolgus CD3εδ Fc heterodimer (Cy …); test: SPR (Biacore), Fab over immobilized CD3εδ Fc, pH 6.0
Description: (§3) Anti-CD3 antibodies A001-A005, V002, V004, V007, V009, V010, V013, and V014-V019 were produced in CHO cells, and Fab fragments were generated from IgG1 antibodies by papain digestion and purification as described in Example 2. Monovalent binding affinity at pH 7.4 and pH 6.0 was measured via surface plasmon resonance (SPR). Briefly, human or cynomolgus CD3εδ Fe heterodimer produced as described in Example 2 was immobilized to a CM5 sensor chip in a Biacore® X100 (Cytiva, previously GE Healthcare Life Sciences) to a response level of ˜500 RUs. Fabs were then injected at 3-fold increasing concentrations, ranging from 0.74-180 nM. The sensor chip was doubly regenerated between cycles using 0.35 M EDTA and 0.1 M NaOH. The resulting data were double reference subtracted and fit to a 1:1 binding model using Biacore® Evaluation Software.

[4] = molecular target: T2, Human CD3εδ Fc heterodimer (Hu CD3ε Fc …); test: as above
Description: as §3

[5] = molecular target: T1, Cynomolgus CD3εδ Fc heterodimer (Cy …); test: BLI (Octet), Fab monovalent, pH 7.4
Description: as §1, §2

[6] = molecular target: T3, Rhesus CD3εδ Fc heterodimer (rhesus); test: BLI (Octet), Fab monovalent, pH 7.4
T3 construct: extracellular domain; also called Rh CD3εδ-Fc
Description: as §1, §2

[7] = molecular target: T2, Human CD3εδ Fc heterodimer (Hu CD3ε Fc …); test: BLI (Octet), Fab monovalent, pH 7.4
Description: as §1, §2

[8] = molecular target: T1, Cynomolgus CD3εδ Fc heterodimer (Cy …); test: SPR (Biacore), Fab over immobilized CD3εδ Fc, pH 7.4
Description: as §3

[9] = molecular target: T2, Human CD3εδ Fc heterodimer (Hu CD3ε Fc …); test: as above
Description: as §3

[10] = molecular target: T1, Cynomolgus CD3εδ Fc heterodimer (Cy …); test: BLI (Octet), CD3εδ Fc on AHC sensor, 100 nM Fab
Description: (§4) Affinity of the anti-CD3 antibodies for CD3 was determined by measuring their kinetic constants (kₒₙ, koff, KD) on ForteBio Octet®. ForteBio affinity measurements were performed generally as previously described (Estep et al., MAbs. 2013 5(2):270-8). […] Sensors were equilibrated off-line in assay buffer for 30 minutes and then monitored on-line for 60 seconds for baseline establishment. For monovalent binding measurement, sensors with loaded CD3εδ Fc were exposed to 100 nM anti-CD3 Fab, as further described in Example 2 below] for 3 minutes, afterwards they were transferred to assay buffer for 3 minutes for off-rate measurement. Kinetics data were fit using a 1:1 binding model in the data analysis software provided by ForteBio.

[11] = molecular target: T2, Human CD3εδ Fc heterodimer (Hu CD3ε Fc …); test: BLI (Octet), CD3εδ Fc on AHC sensor, 100 nM Fab
Description: as §4

[12] = molecular target: T4, Cynomolgus CD3 on HSC-F cells (cynomolgus, UniProt Q95LI5 22-198); test: flow cytometry, 100 nM IgG
T4 construct: whole, on cells; Target is the endogenous CD3 complex on cells; also called Cyno CD3 HSC-F cells; Cyno CD3+ HSC-F cells
Description: (§5) Specificity of the anti-CD3 antibodies for human CD3+ Jurkat cells and Cynomolgus monkey HSC-F cells was determined using a FACS cell binding assay. Briefly, cells were thawed and washed with cold PBSF buffer (PBS+0.1% BSA, pH 7.4). About 200,000 cells were aliquoted per well of a 96-well plate and pelleted by centrifugation (5 minutes at 500×g). The cells were washed and resuspended in 100 μl PBSF with CHO-produced anti-CD3 IgG antibody (100 nM). The mixture (cells+antibody) was incubated for 20 minutes on ice, then washed twice with PBSF. Cells were resuspended in 50 μl of propidium iodide (1:500 dilution) and anti-human IgG-RPE (1:100 dilution) prepared in PBSF, then incubated for 20 minutes on ice in the dark before cells were washed twice with PBSF. Binding was analyzed on FACS Canto II. Also shown are results using cells without CD3 [CHO-S cells, Jurkat CD3 knockout (CD3−) cells, and HEK cells] for comparison, including results with Jurkat CD3-cells combined with anti-CD3 antibody Fab fragments (100 nM).

[13] = molecular target: T5, Human CD3 on CD3+ Jurkat cells (human, UniProt P07766 23-207); test: flow cytometry, 100 nM IgG
T5 construct: whole, on cells; Target is the endogenous CD3 complex on cells; also called Human CD3+ Jurkat cells
Description: as §5

T1 sequence (Q95LI5 22-117, stated change not applied, form in doubt, chain 1 of 2): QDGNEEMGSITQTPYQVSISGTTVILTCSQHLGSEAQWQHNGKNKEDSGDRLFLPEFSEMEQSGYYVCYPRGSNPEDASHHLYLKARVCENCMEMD
T1 sequence (Q95LI8 22-100, stated change not applied, form in doubt, chain 2 of 2): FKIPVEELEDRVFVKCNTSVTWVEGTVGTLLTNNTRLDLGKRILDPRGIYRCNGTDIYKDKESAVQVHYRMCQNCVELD
T2 sequence (P07766 22-126, stated change not applied, form in doubt, chain 1 of 2): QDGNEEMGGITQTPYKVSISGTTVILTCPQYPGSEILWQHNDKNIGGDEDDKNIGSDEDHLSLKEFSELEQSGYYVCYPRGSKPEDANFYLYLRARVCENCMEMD
T2 sequence (P04234 22-100, stated change not applied, form in doubt, chain 2 of 2): as the sequence (Q95LI8 22-100, stated change not applied, form in doubt, chain 2 of 2) above, with V5I, K15N, V20I, T32S, N33D, N34I, A64T, N74S counted along it
T5 sequence (P07766 23-207): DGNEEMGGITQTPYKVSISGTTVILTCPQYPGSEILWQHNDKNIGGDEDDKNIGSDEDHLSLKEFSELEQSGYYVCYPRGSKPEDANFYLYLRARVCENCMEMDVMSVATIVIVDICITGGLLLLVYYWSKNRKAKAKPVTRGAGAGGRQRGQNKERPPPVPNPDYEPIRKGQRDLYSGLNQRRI
T4 sequence (Q95LI5 22-198): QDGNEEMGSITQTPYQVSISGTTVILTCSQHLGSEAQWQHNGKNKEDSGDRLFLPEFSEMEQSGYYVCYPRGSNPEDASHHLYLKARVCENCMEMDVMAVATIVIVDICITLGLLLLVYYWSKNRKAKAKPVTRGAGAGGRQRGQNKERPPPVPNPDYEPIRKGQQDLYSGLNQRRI

Binder	MFI [12]	MFI [13]	further results
Antibody No. V010 (ADI-70327) Fab (Fab, V domains shown, Fab by papain digestion of the IgG1) VH: QVQLVQSGAEVKKPGASVKVSCKASGFDIKDYYMHWVRQAPGQRLEWIGWIELENDDTVYDAKFQGRVTITRDTSASTAYMELSSLRSEDTAVYYCARDAYGRYFYDVWGQGTLVTVSS VL: DIVMSQSPDSLAVSLGERATINCKSSQSLLNARTGKNYLAWYQQKPGQPPKLLIYWASTRSSGVPDRFSGSGSGTDFTLTISSLQAEDVAVYYCVQSYFRRTFGGGTKVEIK	–	–	Kd [1]: 1.9 nM; Kd [2]: 2 nM; Kd [3]: 0.82 nM; Kd [4]: 3.1 nM; Kd [5]: 3.4 nM; Kd [6]: 4.4 nM; Kd [7]: 4.1 nM; Kd [8]: 0.45 nM; Kd [9]: 0.39 nM; Kd [10]: 1.91 nM; Kd [11]: 1.92 nM
Antibody No. V003 (ADI-67446) IgG1 (antibody, V domains shown, IgG1, CHO-produced) VH: QVQLVQSGAEVKKPGASVKVSCKASGFDIKDYYMHWVRQAPGQRLEWMGWIELENADTIYDAKFQGRVTITRDTSASTAYMELSSLRSEDTAVYYCARDAYGRYFYDVWGQGTLVTVSS VL: DIVMTQSPDSLAVSLGERATINCKSSQSLLNARTGKNYLAWYQQKPGQPPKLLIYWASTRESGVPDRFSGSGSGTDFTLTISSLQAEDVAVYYCKQSYSRRTFGGGTKVEIK	6010 MFI	3020 MFI	–
Antibody No. V005 (ADI-67448) IgG1 (antibody, V domains shown, IgG1, CHO-produced; VH as printed is identical to that of V004) VH: QVQLVQSGAEVKKPGASVKVSCKASGFNIDDYYMHWVRQAPGQRLEWMGWIDLENDNTIYDAKFQGRVTITRDTSASTAYMELSSLRSEDTAVYYCARDAYGRYFYDVWGQGTLVTVSS VL: DIVMTQSPDSLAVSLGERATINCKSSQSLLNARTGKNYLAWYQQKPGQPPKLLIYWASTRESGVPDRFSGSGSGTDFTLTISSLQAEDVAVYYCKQSYSRRTFGGGTKVEIK	5940 MFI	3150 MFI	–
Antibody No. V006 (ADI-67449) IgG1 (antibody, V domains shown, IgG1, CHO-produced) VH: QVQLVQSGAEVKKPGASVKVSCKASGFNDKDYYMHWVRQAPGQRLEWMGWIDLENAETIYDAKFQDRVTITRDTSASTAYMELSSLRSEDTAVYYCARDAYGRYFYDVWGQGTLVTVSS VL: DIVMTQSPDSLAVSLGERATINCKSSQSLLNARTGKNYLAWYQQKPGQPPKLLIYWASTRESGVPDRFSGSGSGTDFTLTISSLQAEDVAVYYCKQSYSRRTFGGGTKVEIK	5750 MFI	3040 MFI	–
Antibody No. V008 (ADI-70325) IgG1 (antibody, V domains shown, IgG1, CHO-produced) VH: QVQLVQSGAEVKKPGASVKVSCKASGFNIKDYYMHWVRQAPGQRLEWIGWIDLENAETVYDAKFQDRVTITRDTSASTAYMELSSLRSEDTAVYYCARDAYGRYFYDVWGQGTLVTVSS VL: DIVMSQSPDSLAVSLGERATINCKSSQSLLNARTGKNYLAWYQQKPGQPPKLLIYWASTRSSGVPDRFSGSGSGTDFTLTISSLQAEDVAVYYCVQSYFRRTFGGGTKVEIK	6400 MFI	3200 MFI	–
Antibody No. V011 (ADI-70328) IgG1 (antibody, V domains shown, IgG1, CHO-produced) VH: QVQLVQSGAEVKKPGASVKVSCKASGFNIDDYYMHWVRQAPGQRLEWIGWIDLENDNTVYDAKFQGRVTITRDTSASTAYMELSSLRSEDTAVYYCARDAYGRYFYDVWGQGTLVTVSS VL: DIVMSQSPDSLAVSLGERATINCKSSQSLLNARTGKNYLAWYQQKPGQPPKLLIYWASTRSSGVPDRFSGSGSGTDFTLTISSLQAEDVAVYYCVQSYFRRTFGGGTKVEIK	5910 MFI	3000 MFI	–
Antibody No. V012 (ADI-70329) IgG1 (antibody, V domains shown, IgG1, CHO-produced) VH: QVQLVQSGAEVKKPGASVKVSCKASGFNDKDYYMHWVRQAPGQRLEWIGWIDLENAETVYDAKFQDRVTITRDTSASTAYMELSSLRSEDTAVYYCARDAYGRYFYDVWGQGTLVTVSS VL: DIVMSQSPDSLAVSLGERATINCKSSQSLLNARTGKNYLAWYQQKPGQPPKLLIYWASTRSSGVPDRFSGSGSGTDFTLTISSLQAEDVAVYYCVQSYFRRTFGGGTKVEIK	5800 MFI	3020 MFI	–
